B1: WDFY1 (parent)
chain: FWNIKQMWDTKTLGLRQHHCRKCG

Variants of: B1
Assay: protein stability index of a GFP-peptide fusion (GPS, HEK-293T) (PSI 1-6); higher = more stable
Details: c terminus: a fixed tail appended
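Further: lentivirally expressed fusions sorted by FACS into six bins by GFP to DsRed ratio, PSI derived from sequencing read proportions per bin multiplied by bin number.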

Row | Variant | protein stability index
1 | FWNIKQMWDTKTLGLRRHHCRKCG [Q17R] | 2.75
2 | FWNIKQMWDTKTLGLRNHHCRKCG [Q17N] | 2.14
3 | FWNIKQMWDTKTLGLRHHHCRKCG [Q17H] | 1.83
4 | FWNIKQMWDTKTLGLRSHHCRKCG [Q17S] | 2.05
5 | FWNIKQMWDTKTLGLRFHHCRKCG [Q17F] | 1.88
6 | FWNIKQMWDTKTLGLRQHHCRKCT [G24T] | 2.29
7 | FWNIKQMWDTKTLGLRQHHCRKCQ [G24Q] | 2.21
8 | FWNIKQMWDTKTLGLRQHHCRKCW [G24W] | 2.12
9 | FWNIKQMWDTKTLGLRQHHCRKCF [G24F] | 1.96
10 | FWNIKQMWDTKTLGLRQHHCRKCR [G24R] | 2.35
11 | FNNIKQMWDTKTLGLRQHHCRKCG [W2N] | 2.46
12 | FINIKQMWDTKTLGLRQHHCRKCG [W2I] | 2.41
13 | FQNIKQMWDTKTLGLRQHHCRKCG [W2Q] | 1.75
14 | FSNIKQMWDTKTLGLRQHHCRKCG [W2S] | 1.62
15 | FPNIKQMWDTKTLGLRQHHCRKCG [W2P] | 2.32
16 | FWNIAQMWDTKTLGLRQHHCRKCG [K5A] | 1.97
17 | FWNIMQMWDTKTLGLRQHHCRKCG [K5M] | 1.87
18 | FWNIKQMWDTKTLGQRQHHCRKCG [L15Q] | 2.29
19 | FWNIKQMWDTKTLGFRQHHCRKCG [L15F] | 1.91
20 | FWNIKQMWDTKTLGLRQHHCRCCG [K22C] | 1.7
21 | FWNIKQMWDTKTLGLRQHHCRHCG [K22H] | 1.44
22 | FWNIKQMWDTKTLGLRQHHCRQCG [K22Q] | 2.01
23 | FWNIKQMYDTKTLGLRQHHCRKCG [W8Y] | 2.6
24 | FWNIKQMLDTKTLGLRQHHCRKCG [W8L] | 1.76

Row | Variant | protein stability index
25 | FWNIKQMADTKTLGLRQHHCRKCG [W8A] | 2.57
26 | FWNIKQMMDTKTLGLRQHHCRKCG [W8M] | 2.78
27 | FWNIKQMWDTKTLGLRQPHCRKCG [H18P] | 2.63
28 | FWNIKQMWDTKTLGLRQVHCRKCG [H18V] | 2.02
29 | FWNIKQMWDTKTLGLRQKHCRKCG [H18K] | 1.89
30 | FWNIKQMWDTKTLGLRQSHCRKCG [H18S] | 2.58
31 | FWNIKQMWDTKTLGLRQCHCRKCG [H18C] | 3
32 | FWNIKQMWDTKTLGLRQHLCRKCG [H19L] | 2.23
33 | FWNIKQMWDTKTLGLRQHRCRKCG [H19R] | 1.75
34 | FWNIKQMWDTKTLGLRQHYCRKCG [H19Y] | 2.5
35 | FWNSKQMWDTKTLGLRQHHCRKCG [I4S] | 1.95
36 | FWNGKQMWDTKTLGLRQHHCRKCG [I4G] | 2.19
37 | FWNFKQMWDTKTLGLRQHHCRKCG [I4F] | 1.54
38 | CWNIKQMWDTKTLGLRQHHCRKCG [F1C] | 2.65
39 | KWNIKQMWDTKTLGLRQHHCRKCG [F1K] | 2.45
40 | RWNIKQMWDTKTLGLRQHHCRKCG [F1R] | 1.54
41 | PWNIKQMWDTKTLGLRQHHCRKCG [F1P] | 2.29
42 | FWNIKFMWDTKTLGLRQHHCRKCG [Q6F] | 2.36
43 | FWNIKPMWDTKTLGLRQHHCRKCG [Q6P] | 1.97
44 | FWNIKRMWDTKTLGLRQHHCRKCG [Q6R] | 2.38
45 | FWNIKYMWDTKTLGLRQHHCRKCG [Q6Y] | 1.92
46 | FWNIKQMWDTQTLGLRQHHCRKCG [K11Q] | 1.77
47 | FWNIKQMWDTPTLGLRQHHCRKCG [K11P] | 2.2
48 | FWNIKQMWDTSTLGLRQHHCRKCG [K11S] | 2.57

Row | Variant | protein stability index
49 | FWNIKQMWDTTTLGLRQHHCRKCG [K11T] | 2.21
50 | FWNIKQMWDRKTLGLRQHHCRKCG [T10R] | 2.06
51 | FWNIKQMWDHKTLGLRQHHCRKCG [T10H] | 2.13
52 | FWNIKQMWDDKTLGLRQHHCRKCG [T10D] | 2.56
53 | FWNIKQMWDCKTLGLRQHHCRKCG [T10C] | 2.11
54 | FWNIKQMWDMKTLGLRQHHCRKCG [T10M] | 2.16
55 | FWNIKQMWDIKTLGLRQHHCRKCG [T10I] | 2.31
56 | FWNIKQMWDVKTLGLRQHHCRKCG [T10V] | 2.04
57 | FWCIKQMWDTKTLGLRQHHCRKCG [N3C] | 2.56
58 | FWIIKQMWDTKTLGLRQHHCRKCG [N3I] | 1.5
59 | FWKIKQMWDTKTLGLRQHHCRKCG [N3K] | 1.41
60 | FWEIKQMWDTKTLGLRQHHCRKCG [N3E] | 2.05
61 | FWSIKQMWDTKTLGLRQHHCRKCG [N3S] | 1.61
62 | FWNIKQRWDTKTLGLRQHHCRKCG [M7R] | 2.58
63 | FWNIKQFWDTKTLGLRQHHCRKCG [M7F] | 1.77
64 | FWNIKQMWDTKTLGLRQHHCFKCG [R21F] | 1.85
65 | FWNIKQMWDTKTLGLRQHHCPKCG [R21P] | 2.07
66 | FWNIKQMWDTKTLGLRQHHCMKCG [R21M] | 1.71
67 | FWNIKQMWDTKTLGLRQHHCKKCG [R21K] | 2.78
68 | FWNIKQMWDTKTLGLRQHHCWKCG [R21W] | 2.46
69 | FWNIKQMWDTKTLGLRQHHCHKCG [R21H] | 1.57
70 | FWNIKQMWDTKTSGLRQHHCRKCG [L13S] | 2.37
71 | FWNIKQMWDTKTGGLRQHHCRKCG [L13G] | 2.01
72 | FWNIKQMWDTKTIGLRQHHCRKCG [L13I] | 2.26

Row | Variant | protein stability index
73 | FWNIKQMWDTKTLGLLQHHCRKCG [R16L] | 1.79
74 | FWNIKQMWDTKTLGLHQHHCRKCG [R16H] | 2.5
75 | FWNIKQMWDTKTLGLTQHHCRKCG [R16T] | 2.55
76 | FWNIKQMWDTKTLGLKQHHCRKCG [R16K] | 2.89
77 | FWNIKQMWMTKTLGLRQHHCRKCG [D9M] | 1.25
78 | FWNIKQMWWTKTLGLRQHHCRKCG [D9W] | 1.75
79 | FWNIKQMWATKTLGLRQHHCRKCG [D9A] | 1.98
80 | FWNIKQMWYTKTLGLRQHHCRKCG [D9Y] | 1.89
81 | FWNIKQMWDTKTLGLRQHHSRKCG [C20S] | 2.44
82 | FWNIKQMWDTKTLGLRQHHPRKCG [C20P] | 1.73
83 | FWNIKQMWDTKDLGLRQHHCRKCG [T12D] | 1.91
84 | FWNIKQMWDTKFLGLRQHHCRKCG [T12F] | 2.11
85 | FWNIKQMWDTKPLGLRQHHCRKCG [T12P] | 1.98
86 | FWNIKQMWDTKCLGLRQHHCRKCG [T12C] | 3.57
87 | FWNIKQMWDTKTLGLRQHHCRKHG [C23H] | 2.78
88 | FWNIKQMWDTKTLGLRQHHCRKTG [C23T] | 2.34
89 | FWNIKQMWDTKTLYLRQHHCRKCG [G14Y] | 1.48
90 | FWNIKQMWDTKTLNLRQHHCRKCG [G14N] | 2.08
91 | FWNIKQMWDTKTLTLRQHHCRKCG [G14T] | 2.68
92 | FWNIKQMWDTKTLELRQHHCRKCG [G14E] | 2.44
93 | FWNIKQMWDTKTLVLRQHHCRKCG [G14V] | 1.58
94 | FWNIKQMWDTKTLQLRQHHCRKCG [G14Q] | 2.54
